# Results as given in publication PMC4303294 (Biochemistry, 2014).
# Target: the molecule itself
# Experiment: SEC
protein,measurement,value
"nitrophorin 4 (NP4) reconstituted with the symmetrical hemin, 2,4-dimethyldeuterohemin (natural protein, Rhodnius prolixus, UniProt Q94734 22-205, looked up) ACTKNAIAQTGFNKDKYFNGDVWYVTDYLDLEPDDVPKRYCAALAAGTASGKLKEALYHYDPKTQDTFYDVSELQVESLGKYTANFKKVDKNGNVKVAVTAGNYYTFTVMYADDSSALIHTCLHKGNKDLGDLYAVLNRNKDAAAGDKVKSAVSAATLEFSKFISTKENNCAYDNDSLKSLLTK",stoichiometry N,2
